From patent publication US20210220460

Tests used:
[1] = test system: ComP-His (pilin-like protein ComP of A. baylyi with C-6X His tag)
[2] = test system: DsbA1-His of N. meningitidis expressed in A. baylyi (pBAV-dsbA1-His, C-6X His)
[3] = test system: OmpA-His (A1S_1193) expressed in A. baylyi
[4] = test system: OmpA-His (A1S_1193 with C-terminal 5x His tag), expressed in strain M2 backgrounds
[5] = test system: PilAM2, major type IVa pilin of A. nosocomialis strain M2
[6] = test system: PilA17978-His (pilin of A. baumannii ATCC 17978 with C-terminal hexa-histidine tag)

Pg1LADP1, general O-OTase of A. baylyi ADP1 (ACIAD0103)
ComP-His electrophoretic mobility, western blot [1]: Pg1LADP1 is not required for ComP post-translational modification
DsbA1-His electrophoretic mobility, western blot of A. baylyi lysates [2]: displayed an increased electrophoretic mobility in the Δpg1LADP1 background relative to wild-type and Δpg1LComP backgrounds
OmpA-His electrophoretic mobility, western blot of A. baylyi lysates [3]: displayed an increased electrophoretic mobility in the Δpg1LADP1 background relative to wild-type and Δpg1LComP backgrounds

Pg1LM2, general O-OTase of A. nosocomialis strain M2 (ORF M215_10475)
OmpA-His electrophoretic mobility, western blot; ESI-TOF-MS/MS [4]: OmpA-His from the M2Δpg1L::kan and the M2ΔweeH::kan backgrounds migrated at an increased electrophoretic mobility, consistent with the lack of a post-translational modification

TfpOM2, type four pilin specific O-oligosaccharyltransferase of A. nosocomialis strain M2 (ORF M215_10480)
MS/MS analysis of PilA from surface shear preparations [5]: PilA from the M2ΔtfpO::kanΔpilT::strep mutant was unmodified

Pg1LComP, ComP-specific O-OTase of A. baylyi ADP1 (ACIAD3337)
ComP-His electrophoretic mobility, western blot [1]: pg1LComP (ACIAD3337) is required for ComP modification
glycosylation in E. coli CLM24, western blot with anti-his and anti-glycan antibodies [1]: lower electrophoretic mobility bands that react to the anti-his and anti-glycan antibodies indicate glycosylation of ComP by the C. jejuni LLO
glycosylation in E. coli CLM24 with the S. pneumoniae serotype 14 CPS locus, western blot [1]: Lower electrophoretic mobility bands in panel A that react to both Anti-His and Anti-Glycan antibodies in lane 2 relative to lane 1
heterologous ComP-His electrophoretic mobility, western blot [1]: ComP-His was only modified in A. baylyi ADP1
heterologous PilA17978 electrophoretic mobility, western blot [6]: PilA17978 was not glycosylated by Pg1LComP
heterologous PilAM2 electrophoretic mobility, western blot [5]: Pg1LComP was unable to glycosylate the pilins recognized by TfpO
